In test [1] the target is soluble recombinant HLA-DR2 molecules (MHC class II HLA-DR2 protein) (human). The test is described as follows: competition ELISA on soluble HLA-DR2; competitor biotinylated Cop 1 (1.5 µM).
Test [2] shares this target. The test is described as follows: competition ELISA on soluble HLA-DR2; competitor biotinylated MBP 85-99 (0.13 µM).
In test [3] the target is HLA-DR2 (DRB1*1501) on antigen presenting cells (MGAR, L466) (human). The test can be described thus: cell-based or functional assay.
The target of test [4] is T1, soluble recombinant HLA-DR2 molecules (MHC class II HLA-DR2 protein) (human).
T1 construct: Soluble, empty protein from Drosophila S2 cells, captured on plates by antibody LB3.1; also called MHC class II DR2 protein; recombinant HLA-DR2 protein
The test is described as follows: competition ELISA on soluble HLA-DR2; competitor biotinylated Cop 1 (1.5 µM).

The target of test [5] is T1, soluble recombinant HLA-DR2 molecules …. The test is described as follows: competition ELISA on soluble HLA-DR2; competitor biotinylated MBP 85-99 (0.13 µM). Background: An ELISA detects its analyte on a solid surface through an enzyme-linked reagent.
For test [6], the target named is T2, soluble recombinant HLA-DR2 molecules (MHC class II HLA-DR2 protein) (human).
T2 chain 1: not shown
T2 chain 2: not shown
The test is described as follows: competition ELISA on soluble HLA-DR2; competitor biotinylated Cop 1 (1.5 µM). The conditions noted are these: remark: other sources report otherwise.

A value given as a limit tells only on which side of the number the result lay.

By IC50 is commonly meant the point on the concentration scale where inhibition reaches its midpoint.

For “Cop 1 (Copolymer 1; poly(Y,E,A,K); Copaxone), unlabeled”, the IC50 is 7 µM in test [1] and 100 µM in test [2].

B1: synthetic peptide #51 (peptide)
peptide: AKAAAAEYAAAAAAA
Turning to B1, the “Inhibition of IL-2 production (%), Hy1B” value in test [3] was 3%. For the same molecule, the IC50 in test [4] was greater than 1000 µM.

B2: synthetic peptide #50 (peptide)
peptide: AKKAAEAYAAAAAAA
Consider B2, for which the “Inhibition of IL-2 production (%), Hy1B” value in test [3] is 22%. Also, the concentration for half-maximal inhibition (IC50) stood at 10 µM in test [5] and 40 µM in test [4].

B3: synthetic peptide #70 (peptide)
peptide: AAAEYKAYAAAAAAA
Take B3: the “Inhibition of IL-2 production (%), Hy1B” value in test [3] was 24%. In addition, the IC50 in test [4] was greater than 1000 µM.

B4: synthetic peptide #61 (peptide)
peptide: AAEEYKAYAAAAAAA
As to B4, the “Inhibition of IL-2 production (%), Hy1B” value in test [3] worked out at 35%. The IC50 in test [4] is greater than 1000 µM.

B5: synthetic peptide #66 (peptide)
peptide: AEAEYKAYAAAAAAA
With B5, in test [3], the “Inhibition of IL-2 production (%), Hy1B” value was found to be 43%. The IC50 in test [4] was greater than 1000 µM.

B6: synthetic peptide #108 (peptide)
peptide: EEAAYKAAKAAAAAA
In the case of B6, the results for the IC50 in test [5] and in test [4] were greater than 1000 µM and 2 µM, respectively.

B7: synthetic peptide #43 (peptide)
peptide: AEKAYAAAAAAAAAA
Take B7: the “Inhibition of IL-2 production (%), Hy1B” value in test [3] is 0%. Also, in test [6], the IC50 is greater than 1000 µM.

B8: synthetic peptide #101 (peptide)
peptide: EKAKYEAYKAAAAAA
For B8, the “Inhibition of IL-2 production (%), Hy1B” value in test [3] came out at 53%. The IC50 in test [5] is 3 µM; in test [4] it was less than 1 µM.

B9: synthetic peptide #118 (peptide)
peptide: AAEAVAAAAAAAAAA
On to B9, for which the “Inhibition of IL-2 production (%), Hy1B” value in test [3] turned out to be 38%. Further, the IC50 in test [4] is greater than 1000 µM.

B10: synthetic peptide #93 (peptide)
peptide: AAKAYEAYKAAAAAA
Turning to B10, the “Inhibition of IL-2 production (%), Hy1B” value in test [3] amounted to 48%. In addition, the values for the IC50 in test [5] and in test [4] were 8 µM and greater than 150 µM, respectively.

B11: synthetic peptide #99 (peptide)
peptide: EAAAYKAYKAAAAAA
For the molecule B11, the “Inhibition of IL-2 production (%), Hy1B” value in test [3] was 57%. In addition, the results for the IC50 in test [5] and in test [4] were 5 µM and greater than 150 µM, respectively.

B12: synthetic peptide #52 (peptide)
peptide: AEKAYAAYAAAAAAA
B12: the “Inhibition of IL-2 production (%), Hy1B” value in test [3] worked out at 20%. The 50% inhibitory concentration (IC50) is 150 µM in test [5] and greater than 150 µM in test [4].

B13: synthetic peptide #94 (peptide)
peptide: AAEAYKAYKAAAAAA
With B13, the “Inhibition of IL-2 production (%), Hy1B” value in test [3] came to 50%. Also, the values for the IC50 in test [5] and in test [4] were 3 µM and greater than 150 µM, respectively.

B14: synthetic peptide #117 (peptide)
peptide: AAEAYAAAAAAAAAA
For the molecule B14, the “Inhibition of IL-2 production (%), Hy1B” value in test [3] came to 25%. In test [4], the IC50 was greater than 1000 µM.

B15: synthetic peptide #96 (peptide)
peptide: EAEAYKAYKAAAAAA
For B15, in test [3], the “Inhibition of IL-2 production (%), Hy1B” value was found to be 43%. For the same molecule, the IC50 was 6 µM in test [5] and greater than 1000 µM in test [4].

B16: synthetic peptide #100 (peptide)
peptide: EAAKYEAYKAAAAAA
In the case of B16, the “Inhibition of IL-2 production (%), Hy1B” value in test [3] stood at 56%. The IC50 in test [5] is greater than 150 µM; in test [4], 2 µM.

B17: synthetic peptide #95 (peptide)
peptide: EAKAYEAYKAAAAAA
With B17, the “Inhibition of IL-2 production (%), Hy1B” value in test [3] came out at 47%. For the same molecule, the IC50 was 40 µM in test [5] and greater than 1000 µM in test [4].

B18: synthetic peptide #104 (peptide)
peptide: AAEKYAEYKAAAAAA
Take B18: in test [3], the “Inhibition of IL-2 production (%), Hy1B” value was 53%. The figures for the IC50 in test [5] and in test [4] were greater than 150 µM and 20 µM, respectively.

B19: synthetic peptide #45 (peptide)
peptide: AKEAAAAYAAAAAAA
With B19, in test [3], the “Inhibition of IL-2 production (%), Hy1B” value was 0%. For the same molecule, the IC50 in test [5] is 95 µM; in test [4] it was greater than 150 µM.

B20: synthetic peptide #102 (peptide)
peptide: EAKKYEAYKAAAAAA
For B20, in test [3], the “Inhibition of IL-2 production (%), Hy1B” value amounted to 57%. Besides, the values for the IC50 in test [5] and in test [4] were 20 µM and 2 µM, respectively.

B21: synthetic peptide #119 (peptide)
peptide: AAEKAAAAAAAAAAA
In the case of B21, in test [3], the “Inhibition of IL-2 production (%), Hy1B” value came to 26%. In addition, the 50% inhibitory concentration (IC50) in test [4] is greater than 1000 µM.

B22: synthetic peptide #112 (peptide)
peptide: EEAAYAYKKAAAAAA
In the case of B22, the “Inhibition of IL-2 production (%), Hy1B” value in test [3] was 32%. In addition, the values for the 50% inhibitory concentration (IC50) in test [5] and in test [4] were greater than 1000 µM and 15 µM, respectively.

B23: synthetic peptide #106 (peptide)
peptide: EEKAYAYAKAAAAAA
With B23, in test [3], the “Inhibition of IL-2 production (%), Hy1B” value was found to be 39%. Besides, the values for the IC50 in test [5] and in test [4] were greater than 1000 µM and 100 µM, respectively.

B24: synthetic peptide #103 (peptide)
peptide: AKKEYAEYKAAAAAA
Regarding B24, the “Inhibition of IL-2 production (%), Hy1B” value in test [3] stood at 49%. Besides, the IC50 is greater than 150 µM in test [5] and less than 1 µM in test [4].

B25: synthetic peptide #53 (peptide)
peptide: AEEAYKAYAAAAAAA
Consider B25, for which the “Inhibition of IL-2 production (%), Hy1B” value in test [3] amounted to 13%. Also, the figures for the IC50 in test [5] and in test [4] were 150 µM and greater than 150 µM, respectively.

B26: synthetic peptide #113 (peptide)
peptide: EAKAYEYAKAAAAAA
As for B26, the “Inhibition of IL-2 production (%), Hy1B” value in test [3] was determined as 30%. The results for the IC50 in test [5] and in test [4] were greater than 1000 µM and less than 1 µM, respectively.

B27: synthetic peptide #107 (peptide)
peptide: ENPVVHYFKNIVTPR
notes: Analog of MBP 85-99 with F to Y at the position of MBP residue 91
In the case of B27, the “Inhibition of IL-2 production (%), Hy1B” value in test [3] was found to be 64%. Further, the results for the IC50 in test [5] and in test [4] were less than 1 µM and 40 µM, respectively.

B28: synthetic peptide #111 (peptide)
peptide: EEAAYKAAKAAAAAA
With B28, the IC50 in test [5] is greater than 1000 µM; in test [4], less than 1 µM.

B29: synthetic peptide #42 (peptide)
peptide: KEEYAAAAAAAAAAA
With B29, in test [3], the “Inhibition of IL-2 production (%), Hy1B” value worked out at 49%. Further, the IC50 in test [4] is greater than 1000 µM.

B30: synthetic peptide #64 (peptide)
peptide: AKAAYEAYAAAAAAA
Take B30: the “Inhibition of IL-2 production (%), Hy1B” value in test [3] turned out to be 18%. Further, the IC50 in test [4] is greater than 1000 µM.

The values are drawn from patent US20060020109A1 (Harvard, published 2006).
